Data reported in patent publication US20030092631A1 (Genentech, published 2003).

Legend:
IGF-1 [1] = target: T1, IGF-1 (human, UniProt P05019 49-118); assay: cell-based or functional assay
BSA = BSA (UniProt P02769 25-607); assay: phage ELISA, BSA on plate
Experimental: (§1) From each round, individual peptide-displaying phage were isolated and analyzed for binding to IGF-1 in a phage ELISA by capturing the peptide-phage with IGF-1 immobilized on a plate, and detecting bound phage (see below). As a control for non-specific binding, the phage were also analyzed in a phage ELISA that used plates coated with BSA. […]
(§2) MAXISORP™ immunoplates (96-well) were coated with capture target protein for 2 hours at room temperature (100 μL at 5 μg/mL in 50 mM carbonate buffer, pH 9.6). The plates were then blocked for 1 h with 0.2% BSA in phosphate-buffered saline (PBS) and washed eight times with PBS, 0.05% TWEEN®-20 detergent. Phage particles were serially diluted into BSA blocking buffer and 100 μL were transferred to coated wells. After I h, plates were washed eight times with PBS, 0.05% TWEEN®-20 detergent, incubated with 100 μL of 1:3000 horse radish peroxidase/anti-M 13 antibody conjugate in BSA blocking buffer for 30 min. and then washed eight times with PBS, 0.05% TWEEN®-20 detergent and two times with PBS. Plates were developed using a tetramethylbenzidine substrate (TMB, Kirkegaard and Perry, Gaithersburg, Md.), stopped with 1.0 M H3PO₄, and read spectrophotometrically at 450 nm.

IGF-1 [2] = target: T1, IGF-1; assay: phage ELISA, IGF-1 on plate
Experimental: as §1, §2

Chain of BSA (P02769 25-607 limits assumed): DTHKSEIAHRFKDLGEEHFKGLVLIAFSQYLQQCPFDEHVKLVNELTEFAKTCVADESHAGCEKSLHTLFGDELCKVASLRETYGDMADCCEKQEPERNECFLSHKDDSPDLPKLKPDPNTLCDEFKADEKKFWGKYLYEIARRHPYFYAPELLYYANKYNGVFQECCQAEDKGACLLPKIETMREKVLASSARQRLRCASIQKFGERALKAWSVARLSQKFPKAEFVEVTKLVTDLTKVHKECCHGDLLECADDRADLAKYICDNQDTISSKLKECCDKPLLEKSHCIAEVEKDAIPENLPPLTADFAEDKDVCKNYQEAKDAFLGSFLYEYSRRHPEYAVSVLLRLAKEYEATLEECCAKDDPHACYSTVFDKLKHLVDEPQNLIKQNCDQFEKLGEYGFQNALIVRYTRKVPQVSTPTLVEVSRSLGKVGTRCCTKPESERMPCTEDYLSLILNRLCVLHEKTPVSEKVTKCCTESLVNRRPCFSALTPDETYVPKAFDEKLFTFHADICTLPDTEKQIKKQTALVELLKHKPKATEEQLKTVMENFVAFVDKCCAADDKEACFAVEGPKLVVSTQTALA
T1 sequence (P05019 49-118): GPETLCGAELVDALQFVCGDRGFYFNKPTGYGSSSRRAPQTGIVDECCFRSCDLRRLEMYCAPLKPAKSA

| Binder | Insulin KIRA (IGF-1 [1]) | binding result (BSA) | binding result (IGF-1 [2]) | IGF-1 KIRA (IGF-1 [1]) |
| --- | --- | --- | --- | --- |
| LGCASDLAGFWYCWAG [F2-1] | 40.4 µM |  |  |  |
| YDWVEACQKWPVLCMDSTMY (naive clone; polyvalent P8 display on phage; STII signal left out) YDWVEACQKWPVLCMDSTMYGGGSGGGAEGDDPAKAAFNSLQASATEYIGYAWAMVVVIVGATIGIKLFKKFTSKAS |  | no binding | binds |  |
| EAGAESRGWLQARCGELLGV (naive clone; polyvalent P8 display on phage; STII signal left out) EAGAESRGWLQARCGELLGVGGGSGGGAEGDDPAKAAFNSLQASATEYIGYAWAMVVVIVGATIGIKLFKKFTSKAS |  | no binding | binds |  |
| HWDWTGGYWWIGREPWKEAA (naive clone; polyvalent P8 display on phage; STII signal left out) HWDWTGGYWWIGREPWKEAAGGGSGGGAEGDDPAKAAFNSLQASATEYIGYAWAMVVVIVGATIGIKLFKKFTSKAS |  | no binding | binds |  |
| VESECLLSLPNLRRCMMDRL (naive clone; polyvalent P8 display on phage; STII signal left out) VESECLLSLPNLRRCMMDRLGGGSGGGAEGDDPAKAAFNSLQASATEYIGYAWAMVVVIVGATIGIKLFKKFTSKAS |  | no binding | binds |  |
| ARCVVDAGGTWYCWAG [F2-P] | 300 µM |  |  |  |
| VEEKCYESITALRHCMQAMQ (naive clone; polyvalent P8 display on phage; STII signal left out) VEEKCYESITALRHCMQAMQGGGSGGGAEGDDPAKAAFNSLQASATEYIGYAWAMVVVIVGATIGIKLFKKFTSKAS |  | no binding | binds |  |
| QIPAGCYESVQSLLECVQSA (naive clone; polyvalent P8 display on phage; STII signal left out) QIPAGCYESVQSLLECVQSAGGGSGGGAEGDDPAKAAFNSLQASATEYIGYAWAMVVVIVGATIGIKLFKKFTSKAS |  | no binding | binds |  |
| GASTTCLEKYRERQWCKELT (naive clone; polyvalent P8 display on phage; STII signal left out) GASTTCLEKYRERQWCKELTGGGSGGGAEGDDPAKAAFNSLQASATEYIGYAWAMVVVIVGATIGIKLFKKFTSKAS |  | no binding | binds |  |
| VMDQCFESYAEMRKCMLDGS (naive clone; polyvalent P8 display on phage; STII signal left out) VMDQCFESYAEMRKCMLDGSGGGSGGGAEGDDPAKAAFNSLQASATEYIGYAWAMVVVIVGATIGIKLFKKFTSKAS |  | no binding | binds |  |
| GEAAECAYDSLGMAYCYAKE (naive clone; polyvalent P8 display on phage; STII signal left out) GEAAECAYDSLGMAYCYAKEGGGSGGGAEGDDPAKAAFNSLQASATEYIGYAWAMVVVIVGATIGIKLFKKFTSKAS |  | no binding | binds |  |
| TAGIECAYDKHLDQYCWWKE (naive clone; polyvalent P8 display on phage; STII signal left out) TAGIECAYDKHLDQYCWWKEGGGSGGGAEGDDPAKAAFNSLQASATEYIGYAWAMVVVIVGATIGIKLFKKFTSKAS |  | no binding | binds |  |
| HPDKCFADVRALQECMESVR (naive clone; polyvalent P8 display on phage; STII signal left out) HPDKCFADVRALQECMESVRGGGSGGGAEGDDPAKAAFNSLQASATEYIGYAWAMVVVIVGATIGIKLFKKFTSKAS |  | no binding | binds |  |
| GESTCVTDLERVEYCWDEKS (naive clone; polyvalent P8 display on phage; STII signal left out) GESTCVTDLERVEYCWDEKSGGGSGGGAEGDDPAKAAFNSLQASATEYIGYAWAMVVVIVGATIGIKLFKKFTSKAS |  | no binding | binds |  |
| CECGKVSSRGCEKLCWLVSYM (naive clone; polyvalent P8 display on phage; STII signal left out) CECGKVSSRGCEKLCWLVSYMGGGSGGGAEGDDPAKAAFNSLQASATEYIGYAWAMVVVIVGATIGIKLFKKFTSKAS |  | no binding | binds |  |
| REVKCMKDLSGHEYCWAEPR (naive clone; polyvalent P8 display on phage; STII signal left out) REVKCMKDLSGHEYCWAEPRGGGSGGGAEGDDPAKAAFNSLQASATEYIGYAWAMVVVIVGATIGIKLFKKFTSKAS |  | no binding | binds |  |
| SFCEFNDWWPTCLV (naive clone; polyvalent P8 display on phage; STII signal left out) SFCEFNDWWPTCLVGGGSGGGAEGDDPAKAAFNSLQASATEYIGYAWAMVVVIVGATIGIKLFKKFTSKAS |  | no binding | binds |  |
| SGTACRWGPSWLLCSLAGSP (naive clone; polyvalent P8 display on phage; STII signal left out) SGTACRWGPSWLLCSLAGSPGGGSGGGAEGDDPAKAAFNSLQASATEYIGYAWAMVVVIVGATIGIKLFKKFTSKAS |  | no binding | binds |  |
| DAMDCVVGPEWRKCFLEG (naive clone; polyvalent P8 display on phage; STII signal left out) DAMDCVVGPEWRKCFLEGGGGSGGGAEGDDPAKAAFNSLQASATEYIGYAWAMVVVIVGATIGIKLFKKFTSKAS |  | no binding | binds |  |
| GIREELCDKGLHKMCFREVR (naive clone; polyvalent P8 display on phage; STII signal left out) GIREELCDKGLHKMCFREVRGGGSGGGAEGDDPAKAAFNSLQASATEYIGYAWAMVVVIVGATIGIKLFKKFTSKAS |  | no binding | binds |  |
| DECLMSVEALKNCMGG [F1-P] | 183 µM |  |  | 400 µM |
| GVETCYSDAMNTQYCWTTEL (naive clone; polyvalent P8 display on phage; STII signal left out) GVETCYSDAMNTQYCWTTELGGGSGGGAEGDDPAKAAFNSLQASATEYIGYAWAMVVVIVGATIGIKLFKKFTSKAS |  | no binding | binds |  |
| GAQAWLCEQREEWCGQMLGT (naive clone; polyvalent P8 display on phage; STII signal left out) GAQAWLCEQREEWCGQMLGTGGGSGGGAEGDDPAKAAFNSLQASATEYIGYAWAMVVVIVGATIGIKLFKKFTSKAS |  | no binding | binds |  |
| GEGPECDLRQWGNLCGHWET (naive clone; polyvalent P8 display on phage; STII signal left out) GEGPECDLRQWGNLCGHWETGGGSGGGAEGDDPAKAAFNSLQASATEYIGYAWAMVVVIVGATIGIKLFKKFTSKAS |  | no binding | binds |  |
| VKDECLMSVEALKNCMGLVS (naive clone; polyvalent P8 display on phage; STII signal left out) VKDECLMSVEALKNCMGLVSGGGSGGGAEGDDPAKAAFNSLQASATEYIGYAWAMVVVIVGATIGIKLFKKFTSKAS |  | no binding | binds |  |
| IECWQDLQGTRLCWE (naive clone; polyvalent P8 display on phage; STII signal left out) IECWQDLQGTRLCWEGGGSGGGAEGDDPAKAAFNSLQASATEYIGYAWAMVVVIVGATIGIKLFKKFTSKAS |  | no binding | binds |  |
| WRCVDDLGGFQYCWAG [F2-2] | 93.6 µM |  |  | 130 µM |
| EVARCVVDAGGTWYCWAEMA (naive clone; polyvalent P8 display on phage; STII signal left out) EVARCVVDAGGTWYCWAEMAGGGSGGGAEGDDPAKAAFNSLQASATEYIGYAWAMVVVIVGATIGIKLFKKFTSKAS |  | no binding | binds |  |
| LSSEECWEALKWQGCLMSER (naive clone; polyvalent P8 display on phage; STII signal left out) LSSEECWEALKWQGCLMSERGGGSGGGAEGDDPAKAAFNSLQASATEYIGYAWAMVVVIVGATIGIKLFKKFTSKAS |  | no binding | binds |  |
| STYSCIRDMGWAVYCWETTL (naive clone; polyvalent P8 display on phage; STII signal left out) STYSCIRDMGWAVYCWETTLGGGSGGGAEGDDPAKAAFNSLQASATEYIGYAWAMVVVIVGATIGIKLFKKFTSKAS |  | no binding | binds |  |
